Target: T1, His-tag IpaB (Shigella flexneri 2457T IpaB with N-terminal His-tag, expressed from pET15b) (Shigella flexneri 2457T, UniProt P18011 1-580)
T1 construct: not shown: N-terminal His-tag from vector pET15b
T1 sequence: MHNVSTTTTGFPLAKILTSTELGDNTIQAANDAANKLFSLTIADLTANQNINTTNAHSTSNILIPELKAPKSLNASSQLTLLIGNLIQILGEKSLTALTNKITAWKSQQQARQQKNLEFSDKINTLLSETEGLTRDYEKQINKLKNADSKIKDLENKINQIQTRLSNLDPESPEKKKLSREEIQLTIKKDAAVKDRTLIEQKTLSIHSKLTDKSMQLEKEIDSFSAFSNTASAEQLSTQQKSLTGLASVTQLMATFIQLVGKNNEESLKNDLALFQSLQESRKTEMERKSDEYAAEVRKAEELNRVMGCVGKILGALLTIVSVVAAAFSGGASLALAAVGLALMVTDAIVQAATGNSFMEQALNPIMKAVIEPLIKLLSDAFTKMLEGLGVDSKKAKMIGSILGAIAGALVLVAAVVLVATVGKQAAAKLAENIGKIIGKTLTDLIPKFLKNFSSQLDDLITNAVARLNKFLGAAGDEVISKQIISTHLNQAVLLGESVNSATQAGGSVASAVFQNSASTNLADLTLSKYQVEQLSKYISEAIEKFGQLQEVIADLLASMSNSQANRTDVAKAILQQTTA
Experiment: co-expression and co-purification

B1: IpgC (cognate chaperone of IpaB, untagged, expressed from pACYCDuet-1) (other)
chain: MSLNITENESISTAVIDAINSGATLKDINAIPDDMMDDIYSYAYDFYNKGRIEEAEVFFRFLCIYDFYNVDYIMGLAAIYQIKEQFQQAADLYAVAFALGKNDYTPVFHTGQCQLRLKAPLKAKECFELVIQHSNDEKLKIKAQSYLDAIQDIKE
  binding result: binds

From patent US20130149329A1 (BOARD OF REGENTS FOR OKLAHOMA STATE UNIVERSITY, published 2013)
